Where a SMILES comes first, the peptide text is derived from it. The star is where a group is joined. Cbz = O=C(OCc1ccccc1)*
B1: G97F: PINK1-YFP transmembrane domain point mutant (protein, UniProt Q9BXM7 78-581, looked up, variant G97F)
Serine/threonine-protein …: AARLQRQFVVRAWGCAGPCFRAVFLAFGLGLGLIEEKQAESRRAVSACQEIQAIFTQKSKPGPDPLDTRRLQGFRLEEYLIGQSIGKGCSAAVYEATMPTLPQNLEVTKSTGLLPGRGPGTSAPGEGQERAPGAPAFPLAIKMMWNISAGSSSEAILNTMSQELVPASRVALAGEYGAVTYRKSKRGPKQLAPHPNIIRVLRAFTSSVPLLPGALVDYPDVLPSRLHPEGLGHGRTLFLVMKNYPCTLRQYLCVNTPSPRLAAMMLLQLLEGVDHLVQQGIAHRDLKSDNILVELDPDGCPWLVIADFGCCLADESIGLQLPFSSWYVDRGGNGCLMAPEVSTARPGPRAVIDYSKADAWAVGAIAYEIFGLVNPFYGQGKAHLESRSYQEAQLPALPESVPPDVRQLVRALLQREASKRPSARVAANVLHLSLWGEHILALKNLKLDKMVGWLLQQSAATLLANRLTEKCCVETKMKMLFLANLECETLCQAALLLCSWRAAL
modifications: YFP fusion
notes: PINK1-YFP transmembrane domain point mutant
B2: R98F: PINK1-YFP transmembrane domain point mutant (protein, UniProt Q9BXM7 78-581, looked up, variant R98F)
Serine/threonine-protein …: AARLQRQFVVRAWGCAGPCGFAVFLAFGLGLGLIEEKQAESRRAVSACQEIQAIFTQKSKPGPDPLDTRRLQGFRLEEYLIGQSIGKGCSAAVYEATMPTLPQNLEVTKSTGLLPGRGPGTSAPGEGQERAPGAPAFPLAIKMMWNISAGSSSEAILNTMSQELVPASRVALAGEYGAVTYRKSKRGPKQLAPHPNIIRVLRAFTSSVPLLPGALVDYPDVLPSRLHPEGLGHGRTLFLVMKNYPCTLRQYLCVNTPSPRLAAMMLLQLLEGVDHLVQQGIAHRDLKSDNILVELDPDGCPWLVIADFGCCLADESIGLQLPFSSWYVDRGGNGCLMAPEVSTARPGPRAVIDYSKADAWAVGAIAYEIFGLVNPFYGQGKAHLESRSYQEAQLPALPESVPPDVRQLVRALLQREASKRPSARVAANVLHLSLWGEHILALKNLKLDKMVGWLLQQSAATLLANRLTEKCCVETKMKMLFLANLECETLCQAALLLCSWRAAL
modifications: YFP fusion
notes: as for B1
B3: R275W: YFP-Parkin mutation in RING1 (protein, UniProt O60260 1-465, looked up, variant R275W)
E3 ubiquitin-protein ligase …: MIVFVRFNSSHGFPVEVDSDTSIFQLKEVVAKRQGVPADQLRVIFAGKELRNDWTVQNCDLDQQSIVHIVQRPWRKGQEMNATGGDDPRNAAGGCEREPQSLTRVDLSSSVLPGDSVGLAVILHTDSRKDSPPAGSPAGRSIYNSFYVYCKGPCQRVQPGKLRVQCSTCRQATLTLTQGPSCWDDVLIPNRMSGECQSPHCPGTSAEFFFKCGAHPTSDKETSVALHLIATNSRNITCITCTDVRSPVLVFQCNSRHVICLDCFHLYCVTRLNDWQFVHDPQLGYSLPCVAGCPNSLIKELHHFRILGEEQYNRYQQYGAEECVLQMGGVLCPRPGCGAGLLPEPDQRKVTCEGGNGLGCGFAFCRECKEAYHEGECSAVFEASGTTTQAYRVDERAAEQARWEAASKETIKKTTKPCPRCHVPVEKNGGCMHMKCPQPQCRLEWCWNCGCEWNRVCMGDHWFDV
modifications: YFP fusion
notes: YFP-Parkin mutation in RING1
B4: R42P: YFP-Parkin with pathogenic UBL domain mutation (protein, UniProt O60260 1-465, looked up, variant R42P)
E3 ubiquitin-protein ligase …: MIVFVRFNSSHGFPVEVDSDTSIFQLKEVVAKRQGVPADQLPVIFAGKELRNDWTVQNCDLDQQSIVHIVQRPWRKGQEMNATGGDDPRNAAGGCEREPQSLTRVDLSSSVLPGDSVGLAVILHTDSRKDSPPAGSPAGRSIYNSFYVYCKGPCQRVQPGKLRVQCSTCRQATLTLTQGPSCWDDVLIPNRMSGECQSPHCPGTSAEFFFKCGAHPTSDKETSVALHLIATNSRNITCITCTDVRSPVLVFQCNSRHVICLDCFHLYCVTRLNDRQFVHDPQLGYSLPCVAGCPNSLIKELHHFRILGEEQYNRYQQYGAEECVLQMGGVLCPRPGCGAGLLPEPDQRKVTCEGGNGLGCGFAFCRECKEAYHEGECSAVFEASGTTTQAYRVDERAAEQARWEAASKETIKKTTKPCPRCHVPVEKNGGCMHMKCPQPQCRLEWCWNCGCEWNRVCMGDHWFDV
modifications: YFP fusion
notes: YFP-Parkin with pathogenic UBL domain mutation

Tests used:
Type in all cases: cell-based
[1] = system: PINK1; assay: PINK1 accumulation by fractionation and immunoblotting
Excerpt: (§1) For PINK1 experiments, cells were fractionated using the Mitochondria Isolation Kit (Pierce), according to manufacturer's specifications with slight modifications. To isolate integral membrane proteins, membrane fractions obtained as above were carbonate extracted with 0.1M Na2CO3 fresh cold buffer and membranes were pelleted, as described in the supplemental methods. For Parkin experiments, cells were fractionated as described previously, with minor modifications described in the supplemental methods (Narendra (2008) J Cell Biol 183: 795-803). The following primary antibodies were used: anti-Parkin (PRK8) monoclonal (Santa Cruz), anti-Tom20 polyclonal (Santa Cruz), anti-cytochrome c monoclonal (BD Biosciences), anti-PINK1 polyclonal (Novus Biologicals), anti-VDAC monoclonal (Calbiochem), anti-GAPDH polyclonal (Sigma-Aldrich), anti-Tubulin monoclonal (Sigma-Aldrich), anti-V5 monoclonal (Invitrogen), anti-GFP polyclonal (Invitrogen).
as §1, with “with slight modifications described in the supplemental methods. To isolate” for “with slight modifications. To isolate”, “minor modifications detailed in the” for “minor modifications described in the”, “supplemental methods (Narendra (2008) J Cell Biol 183: 795-803). The protease protection assay was performed as described previously (Chen (2005) J Biol Chem 280: 26185-26192). Cells were fixed and immunostained as described previously (Narendra (2008)” for “supplemental methods (Narendra (2008)”, “anti-GFP polyclonal (Invitrogen), anti-TIM23 monoclonal (BD Biosciences), and anti-Hsp60 monoclonal (Stressgen).” for “anti-GFP polyclonal (Invitrogen).”

[2] = system: HeLa cells; assay: Mitochondrial translocation of Parkin by imaging (Examples 4 and 5)
Procedure: (§2) Cells were cultured in borosilicated chamber slides for imaging, 6-well plates for whole cell lysates, and 100 or 150 mm culture dish for subcellular fractionation. One day after seeding, cells were transfected with indicated constructs using Fugene HD (Roche) or Lipofectamine 2000 (Invitrogen) according to the manufacturer's guidelines.
For immunocytochemistry, cultured cells in borosilicated chamber slides were fixed with 4% paraformaldehyde in PBS (USB) and permeabilized with the indicated detergent. After 30 min blocking with 10% BSA in PBS, cells were stained with the following primary antibodies: antiTom20 polyclonal antibody (Santa Cruz Biotechnology, Inc.) and anti-cytochrome C monoclonal antibody (BD), or anti-Tom20 monoclonal antibody (BD) and anti-GFP polyclonal antibody (Invitrogen) and then with the following secondary antibodies: goat anti-mouse/rabbit IgG antibody conjugated with Alexa Fluor 594/647, respectively. In case of live cell imaging, cells were pulsed with 600 nM TMRE for 5 min to evaluate mitochondrial membrane potential or 10 nM Mitotracker Red for 30 min to see the mitochondrial morphology. Cells were imaged using an inverted microscope (LSM510 Meta; Carl Zeiss) with 63×/1.4 oil DIC Plan Apo objective. Image contrast and brightness were adjusted in LSM image browser (Carl Zeiss).

[3] = system: HeLa cells; assay: Parkin colocalization with mitochondria scored by confocal microscopy; conditions: for YFP-Parkin (wild type or indicated mutant) colocalization with mitochondria, % of cells: HeLa cells, 10 μM CCCP, 1 hour
Outline: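 Transfected HeLa cells fixed 12–24 h post-transfection in 4% paraformaldehyde. Cells immunostained for mitochondrial markers and imaged by confocal microscopy. Parkin recruitment to mitochondria assessed by line-scan colocalization.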

[4] = system: HeLa cells; assay: Parkin in mitochondria-rich membrane fraction, immunoblot; conditions: for translocation of YFP-Parkin variant to mitochondria-rich membrane fraction: HeLa, CCCP 1 hr, Western blotting
Excerpt: as §1
as §1, with “with slight modifications described in the supplemental methods. To isolate” for “with slight modifications. To isolate”, “minor modifications detailed in the” for “minor modifications described in the”, “supplemental methods (Narendra (2008) J Cell Biol 183: 795-803). The protease protection assay was performed as described previously (Chen (2005) J Biol Chem 280: 26185-26192). Cells were fixed and immunostained as described previously (Narendra (2008)” for “supplemental methods (Narendra (2008)”, “anti-GFP polyclonal (Invitrogen), anti-TIM23 monoclonal (BD Biosciences), and anti-Hsp60 monoclonal (Stressgen).” for “anti-GFP polyclonal (Invitrogen).”

[5] = system: PINK1; assay: PINK1 cleavage pattern by immunoblotting (Examples 4 and 5); conditions: HeLa, absence of CCCP or MG132
Procedure: PARL siRNA (5′-[…]-C′) were synthesized by Qiagen. In order to achieve efficient knockdown of PARL, cells were transfected twice over a period of 96 hrs. PINK1-V5/His was a gift from M. Cookson (National Institute of Health, Bethesda, Md.). For site-directed mutagenesis, primers were designed using Primer X, web-based mutagenic primer design program (http://www.bioinformatics.org/primerx/), and produced by Operon. 15 rounds of PCR reactions were performed using Phusion DNA polymerase (Finnzymes) and WT PINK1-YFP constructs as a template. Introduction of point mutations were confirmed by sequencing.
as §2
For whole cell lysates, cells were washed twice with cold-PBS and then directly lysed with 1× sample buffer. For mitochondrial fraction, cells were fractionated as described previously (Narendra et al., 2008) and below, and then mitochondrial pellets were lysed with 1× sample buffer. 20 μg of proteins were separated on 4-12% Tris-glycine or Bis-Tris SDS-PAGE. The following antibodies were used: anti-PINK1 (Novus Biologicals), anti-PARL N-terminal (a gift from L. Pellegrini), anti-Tom20 (Santa Cruz Biotechnology, Inc.), anti-AIF (Sigma-Aldrich) and antiHtra2/Omi (R&D systems) polyclonal antibodies; anti-VDAC (Calbiochem), anti-Tubulin, anti-βactin (Sigma-Aldrich), anti-Hsp70 (Cell Signaling Technologies), anti-Tom20 (BD), anti-Tim23 and anti-cytochrome C (BD) monoclonal antibodies.

[6] = system: HeLa cells; assay: Parkin-induced mitophagy, loss of mitochondria by immunocytochemistry; conditions: HeLa expressing YFP-Parkin variant, CCCP 24 hours
Procedure: Cultured cells seeded in borosilicate chamber slides (Thermo Fisher Scientific) were transfected or cotransfected with YFP-Parkin, ECFP-Parkin, mCherry-Parkin, DsRed-Mito (Clontech Laboratories, Inc.), pcDNA3.1 (Invitrogen), vMIA, and/or Drp1K38A constructs using Fugene 6 (Roche). Parkin-myc was a gift from M. Cookson (National Institutes of Health, Bethesda, Md.). Cells were fixed 12-24 hours after transfection with 4% paraformaldehyde in PBS. Cells were stained with following primary antibodies: mouse monoclonal cytochrome c (BD), rabbit polyclonal Tom20 (Santa Cruz Biotechnology, Inc.), mouse monoclonal Parkin PRK8 (Santa Cruz Biotechnology, Inc.), rabbit polyclonal PMP70 (Invitrogen), and/or mouse monoclonal TRAP1 (Abcam); and with the following secondary antibodies: mouse and/or rabbit Alexa 488, 594, and 633 (Invitrogen). For assessment of mitochondrial membrane potential, cells were pulsed with 50 nM Mito-Tracker red (Invitrogen) for 15 min, washed, and incubated for an additional 10 minutes before fixation or imaging. For assessment of cell metabolic potential, cell nuclei were stained with Hoechst 33342 (Invitrogen).
(§3) Confocal microscopy of fixed samples, scoring of Parkin recruitment and Parkininduced mitophagy, and live cell imaging were performed as described previously (Narendra (2008) J Cell Biol 183: 795-803). Experiments in Mfn1/2 null cells were performed as described previously with minor modifications.
as §3, with “Parkin-induced” for “Parkininduced”, “imageing” for “imaging”, “modifications described in the supplemental methods (Narendra (2008) J Cell Biol 183: 795-803).” for “modifications.”

Molecule | levels of FL and/or ΔMTS-PINK1 [5] | YFP-Parkin (wild type or indicated mutant) colocalization with mitochondria, % of cells [3] [%] | cells with no mitochondria [6] [%] | translocation of YFP-Parkin variant to mitochondria-rich membrane fraction [4] | other results
CC(C)C[C@@H](C=O)NC(=O)[C@H](CC(C)C)NC(=O)[C@H](CC(C)C)NC(=O)OCc1ccccc1 [MG132, reference compound] (Cbz-Leu-Leu-Leu-aldehyde) |  |  |  |  | appearance of short form of PINK1 ([1]; HeLa treated with vehicle, 50 μM MG132 for final hour): ˜52 kDa band appears; mitochondrial translocation of Parkin ([2]; HeLa stably expressing YFP-Parkin, MG132 for 8 hrs): no mitochondrial translocation of Parkin was detected
C[C@@H]1C[C@@H]([C@H](O)CC2CC(=O)NC(=O)C2)C(=O)[C@@H](C)C1 [cycloheximide, reference compound] |  |  |  |  | effect on CCCP-induced Parkin recruitment to mitochondria ([3]; HeLa cells expressing YFP-Parkin, added together with CCCP): blocked; YFP-Parkin colocalization with mitochondria, % of cells ([3]; HeLa, 10 μM CCCP 1 hr+100 μM CHX (30 minutes pretreatment)): 11.3±4.2%; effect on abundance of accumulated full length PINK1 ([1]; HeLa, after 3 hours CCCP, continuous CCCP): little effect; effect on depolarization-induced accumulation of endogenous PINK1 ([1]; HeLa, cycloheximide 90 minutes, CCCP 60 minutes, whole cell lysates and membrane fraction): blocked; effect on YFP-Parkin accumulation in mitochondrial enriched heavy membrane fraction ([4]; HeLa YFP-Parkin, CCCP plus cycloheximide): blocked
B1 | dramatically increased levels |  |  |  | 
B2 | dramatically increased levels |  |  |  | mitochondrial translocation of Parkin induced by PINK1 mutant ([2]; HeLa cells or PINK1 KO cells, without CCCP): did not induce
B3 |  | 81.7±2.1 | 4.0±4 | increases localization in the membrane fraction | 
B4 |  | 34±5.3 | 22.0±2.0 | No membrane translocation was detectable | 

From patent publication US20120277286A1, “COMPOSITIONS AND METHODS FOR THE TREATMENT OR PREVENTION OF MITOCHONDRIAL DISEASES” (The Government of the USA, as represented by the Secretary, …, priority 2009, published 2012)
